Experimental data: patent US6335176B1, “Incorporation of phosphorylation sites” (Pharmacopeia, Inc., priority 1998, dated 2002)
Each block holds one molecule with its values, some of them ahead of it. Bridge positions count the residues as written; N and C are the ends. Square brackets hold non-standard residues; d marks the D form. Ends that are not written are not given here. I, II: the chains in the order shown. pS = N[C@@H](COP(=O)(O)O)C(=O)O

Tests used:
EpoR-Fc = target: T1, EpoR-Fc (Homo sapiens, UniProt P19235); experiment: Saturation binding of Epo-Fc-[33P]phosphopeptide A to EpoR-Fc surface-coated plates
T1 construct: containing the extracellular domain of the erythropoietin receptor fused to the Fc region of human IgG
T1 sequence (P19235 25-250 limits assumed): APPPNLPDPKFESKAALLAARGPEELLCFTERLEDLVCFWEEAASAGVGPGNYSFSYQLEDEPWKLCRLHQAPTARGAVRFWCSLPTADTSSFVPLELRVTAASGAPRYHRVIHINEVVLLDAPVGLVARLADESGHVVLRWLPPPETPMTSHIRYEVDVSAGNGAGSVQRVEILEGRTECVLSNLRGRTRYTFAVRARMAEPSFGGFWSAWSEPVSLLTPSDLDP
Description: (§1) Ligand Binding Assays in Elisa Plate Format. Costar EIA 96-well microtiter plates (assay plates) were coated with 40 ul/well of a solution of anchoring antibody (˜1-5 ug/ml) or binding protein (0.1-0.5 ug/ml) in TBS and incubated overnight at 4° C. Plates were then blocked with 80 ul/well of 1% BSA/TBS for 30 min. Following removal of the blocking protein, 40 ul/well of receptor or receptor fusion protein (0.1-0.5 ug/ml) was added to the plate and incubated at ambient temperature for one hr. if an anchoring antibody step was used. The assay plate was then washed with TBS/0.01% BSA and 40 ul/well ligand at indicated concentrations was added. The assay plate was allowed to incubate at ambient temp. for ˜1-3 hr. with shaking and then washed three times with TBS/0.01% Tween 20 using a SkanWasher300 plate washer (Skatron, Sterling, Va.). Radiolabel was detected by the addition of 80 ul/well of Optiphase (Wallac, Turku, Finland) and the assay plate counted on a Wallace MicroBeta scintillation counter.
The cytokine receptor for erythropoietin was studied as a recombinant soluble Fc-fusion protein containing the extracellular domain of the erythropoietin receptor fused to the Fc region of human IgG. The ligand for this receptor, erythropoietin (Epo) was also prepared as an Fc-fusion, specifically as a fusion to the Fc region of mouse IgG. […]

CXC2 receptor = target: T2, CXC2 receptor (Homo sapiens, UniProt P25025); experiment: Binding of IL8-[33P]phosphopeptide A to CXC2 receptors on CHO cells
T2 construct: expressed in transfected cells; host or cells: CHO cells
T2 sequence (P25025 1-360): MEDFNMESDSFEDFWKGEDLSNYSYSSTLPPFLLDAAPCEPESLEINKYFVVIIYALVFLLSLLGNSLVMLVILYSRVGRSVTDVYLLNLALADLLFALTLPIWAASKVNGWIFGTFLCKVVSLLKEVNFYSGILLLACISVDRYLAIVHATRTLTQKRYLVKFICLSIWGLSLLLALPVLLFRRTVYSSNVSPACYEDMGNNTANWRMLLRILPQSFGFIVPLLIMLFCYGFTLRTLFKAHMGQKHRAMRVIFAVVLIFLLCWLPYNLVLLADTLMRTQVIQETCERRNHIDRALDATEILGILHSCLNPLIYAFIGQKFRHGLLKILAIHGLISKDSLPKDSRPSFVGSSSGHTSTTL
Description: (§2) Ligand Binding Assays using Cells or Membranes. Cultured cells expressing the receptor of interest were suspended to ˜1.6×10^6 per ml in DMEM containing 0.1% FBS. 100 ul aliquots were incubated in a 96-well U-bottom polypropylene microtiter plate (assay plate) containing the indicated ligands. After the appropriate incubation time (˜1-3 hrs) cells were transferred to 1.5 ml eppendorf tubes and centrifuged at 2000 rpm (358×g) for 2 min at 6° C., supernatants aspirated and cells resuspended in 1 ml cell media and centrifuged again. The washed cells were resuspended in 20 ul of cell media and transferred to a microtiter plate, 80 ul/well of Optiphase® (Wallac, Turku, Finland) scintillation cocktail added and plates counted in a Wallac MicroBeta scintillation counter. For cells or membranes harvested by filtration, transfers from the assay plate were made directly to a Millipore 1.2 um GF/C filter plate treated or untreated with 0.3% PEI. Wells were washed with DMEM (3×100 ul) and a final wash with 100 ul water. Scintillation cocktail was added as described above.
(§3) Several ligands for commonly studied receptor families, G protein-coupled receptors (GPCRs) and cytokine receptors were labeled using the reagent of the invention. […]

ObR-Fc = target: T3, ObR-Fc (Homo sapiens, UniProt P48357); experiment: Saturation binding of leptin-[33P]phosphopeptide A to ObR-Fc surface-coated plates; conditions: at the highest concentration of labeled ligand
T3 construct: containing the extracellular domain of the ObR fused to the Fc region of human IgG; purchased R&D Systems, Minneapolis, Minn
T3 sequence (P48357 22-839 limits assumed): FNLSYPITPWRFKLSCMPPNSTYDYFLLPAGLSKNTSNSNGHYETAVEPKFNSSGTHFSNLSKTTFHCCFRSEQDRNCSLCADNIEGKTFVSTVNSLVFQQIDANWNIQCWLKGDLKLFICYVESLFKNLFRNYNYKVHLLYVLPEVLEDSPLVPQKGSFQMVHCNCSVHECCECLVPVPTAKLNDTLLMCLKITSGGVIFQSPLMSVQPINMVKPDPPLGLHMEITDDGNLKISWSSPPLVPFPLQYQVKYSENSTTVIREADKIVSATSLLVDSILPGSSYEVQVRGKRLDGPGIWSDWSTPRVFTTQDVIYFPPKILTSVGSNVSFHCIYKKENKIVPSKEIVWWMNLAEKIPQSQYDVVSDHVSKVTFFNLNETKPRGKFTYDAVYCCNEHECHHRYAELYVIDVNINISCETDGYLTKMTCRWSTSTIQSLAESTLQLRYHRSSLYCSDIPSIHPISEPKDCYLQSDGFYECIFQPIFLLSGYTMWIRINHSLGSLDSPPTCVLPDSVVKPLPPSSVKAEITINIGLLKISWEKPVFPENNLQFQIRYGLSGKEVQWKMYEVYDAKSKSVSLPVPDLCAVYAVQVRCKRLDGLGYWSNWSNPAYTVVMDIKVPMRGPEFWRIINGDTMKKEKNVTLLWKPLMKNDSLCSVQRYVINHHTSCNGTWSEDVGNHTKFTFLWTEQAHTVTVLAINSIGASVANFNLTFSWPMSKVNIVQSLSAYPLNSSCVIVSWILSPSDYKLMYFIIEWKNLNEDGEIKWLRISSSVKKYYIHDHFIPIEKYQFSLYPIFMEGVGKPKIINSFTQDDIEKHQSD
Description: as §1
The cytokine receptor for leptin, the Ob receptor (ObR), was studied as a soluble Fc-fusion protein containing the extracellular domain of the ObR fused to the Fc region of human IgG (R&D Systems, Minneapolis, Minn.). The ligand for this receptor, leptin (R&D Systems) was phosphorylated according to the method of invention as described above.

NK2 receptor = target: T4, NK2 receptor (Rattus norvegicus, UniProt P16610); experiment: Binding of NKA-[33P]phosphopeptide A to NK2 receptors on CHO cells (whole cell)
T4 construct: expressed in transfected cells; host or cells: CHO cells
T4 sequence (P16610 1-390): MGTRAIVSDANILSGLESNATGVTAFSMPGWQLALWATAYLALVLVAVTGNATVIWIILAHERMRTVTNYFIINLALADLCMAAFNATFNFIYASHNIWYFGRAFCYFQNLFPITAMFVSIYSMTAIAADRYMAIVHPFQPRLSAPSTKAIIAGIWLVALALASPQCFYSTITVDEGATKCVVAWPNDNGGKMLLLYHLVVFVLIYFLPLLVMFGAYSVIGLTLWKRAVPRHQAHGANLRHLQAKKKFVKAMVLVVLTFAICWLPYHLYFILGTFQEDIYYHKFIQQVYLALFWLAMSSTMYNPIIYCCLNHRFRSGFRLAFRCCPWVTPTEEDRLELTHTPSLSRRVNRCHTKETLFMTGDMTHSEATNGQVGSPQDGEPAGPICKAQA
Description: as §2, §3

[1] = target: NK2 receptor recombinantly expressed in CHO cells; experiment: saturation radioligand binding, CHO cells, 160,000 cells/assay (FIG. 9A)
Chain of NK2 receptor recombinantly expressed in CHO cells (P21452 whole entry): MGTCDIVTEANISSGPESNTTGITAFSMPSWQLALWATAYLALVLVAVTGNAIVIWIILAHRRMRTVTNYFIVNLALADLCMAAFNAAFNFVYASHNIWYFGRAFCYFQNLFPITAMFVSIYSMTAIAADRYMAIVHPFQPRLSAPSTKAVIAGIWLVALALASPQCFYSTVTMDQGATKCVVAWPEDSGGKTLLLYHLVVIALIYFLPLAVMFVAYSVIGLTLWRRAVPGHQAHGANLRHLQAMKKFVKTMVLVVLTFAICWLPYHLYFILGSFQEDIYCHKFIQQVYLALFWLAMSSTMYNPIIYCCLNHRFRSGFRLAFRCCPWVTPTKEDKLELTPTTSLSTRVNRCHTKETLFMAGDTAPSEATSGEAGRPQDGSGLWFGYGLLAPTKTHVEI

[2] = saturation binding, 160,000 cells/assay

amount detected at the highest concentration of labeled ligand (EpoR-Fc): ~20 Fmol/well
Molecule: N-α-acetyl-S-[Epo-Fc-8-amido-(6-aminothioacetyl)hexonyl]cys-ser-arg-arg-ala-[^33PO3]phosphoser-val-tyr-amide [Epo-Fc-[^33P]phosphopeptide A]

specific binding to its receptor (CXC2 receptor; 33P-labeled ligand, FIG. 8): bound specifically
Bmax (CXC2 receptor; [2]): 110,000 receptors/cell
Molecule: N-α-acetyl-S-[IL8-amido-(6-aminothioacetyl)hexonyl]cys-ser-arg-arg-ala-[^33PO3]phosphoser-val-tyr-amide1-4 [IL8-[^33P]phosphopeptide A]

saturation binding (ObR-Fc): Binding was detected
Molecule: N-α-acetyl-S-[leptin-amido-)6-aminothioacetyl)hexonyl]cys-ser-arg-arg-ala-[^33PO3]phosphoser-val-tyr-amide1-2 [leptin [^33P]phosphopeptide A]

specific binding to its receptor (NK2 receptor; 33P-labeled ligand, FIG. 8): bound specifically
Bmax (NK2 receptor; [2]): 700,000 receptors/cell
Molecule: N-α-acetyl-S-[NKA-lys2N^e-amido-(6-aminothioacetyl)hexonyl]cys-ser-arg-arg-ala-[^33PO3]phosphoser-val-tyr-amide (peptide 1 HKTRSFVGLM-NH2; peptide 2 Ac-CSRRASVY-NH2; bridge I:2-II:1; not fully specified (some residues, bridges); printed as N-α-acetyl-S-[NKA-lys2N^e-amido-(6-aminothioacetyl)hexonyl]cys-ser-arg-arg-ala-[^33PO3]phosphoser-val-tyr-amide; also: phosphoserine carries [33P]phosphate label) [NKA-[^33P]phosphopeptide A]

Bmax (receptors/cell) [1]: 700000
B1: Neurokinin A-[^33PO3]peptide A conjugate (NKA-lys2N^e-[^33PO3]peptide A) (peptide)
peptide 1: HKTRSFVGLM-NH2
peptide 2: Ac-CSRRA[pS]VY-NH2
modifications: bridge I:2-II:1; not fully specified (some residues, bridges); printed as N-&agr,-acetyl-S-[NKA-lys2Ne-amido-(6-aminothioacetyl)hexonyl]cys-ser-arg-arg-ala-[33PO3]phosphoser-val-tyr-amide; also: 33P-labelled phosphate on phosphoserine of chain 2
